In the supplement of paper PMC10598134:
± gives the standard deviation.

Experiment: collision cross section of modified peptide (TIMS, N2, iRT-aligned); higher = larger / more extended gas-phase ion
Method in brief: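 Values are averages of 1–3 technical replicates of the most abundant feature for each charge state. Collision cross section was obtained from the Mason-Schamp equation after 1/K0 calibration with three reference ions and run-wise alignment to the median iRT peptide deviation. Synthetic peptide pools (iRT standard spiked 1:40) were separated on a 120-min nanoflow C18 gradient at 60 °C, analysed on a timsTOF Pro/HT (dda-PASEF, nitrogen, ~2.4 mbar) and identified with MaxQuant.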

[1] = charge state: 2, modification: Butyryl
[2] = charge state: 3, modification: Butyryl
[3] = charge state: 2, modification: Succinyl
[4] = charge state: 3, modification: Succinyl
[5] = charge state: 3, modification: Methyl (R)
[6] = charge state: 2, modification: Dimethyl (K)
[7] = charge state: 3, modification: Dimethyl (K)
[8] = charge state: 2, modification: Phospho (Y)
[9] = charge state: 2, modification: Crotonyl

LYAVHQEGNK [_LY(Nitro (Y))AVHQEGNK_]
collision cross section (charge state: 2, modification: Nitro (Y)): 359.52 ± 0.17 Å² | collision cross section (charge state: 3, modification: Nitro (Y)): 458.4 ± 0.23 Å²

DVNAAIAAIKTK [_DVNAAIAAIK(Butyryl)TK_]
collision cross section [1]: 406.92 ± 0.23 Å² | collision cross section [2]: 469.41 Å²

DHLSDKESK [_DHLSDK(Propionyl)ESK_]
collision cross section (charge state: 2, modification: Propionyl): 355.5 ± 0.95 Å²

IQQELQTAKK [_IQQELQTAK(Succinyl)K_]
collision cross section [3]: 376.48 ± 0.24 Å² | collision cross section [4]: 438.22 Å²

RGATPPAPPRR [_R(Methyl (R))GATPPAPPRR_]
collision cross section [5]: 465.62 ± 0.37 Å²

VFIGNLNTLVVKK [_VFIGNLNTLVVK(Gluratylation)K_]
collision cross section (charge state: 2, modification: Glutarylation): 424.62 ± 0.97 Å² | collision cross section (charge state: 3, modification: Glutarylation): 495.12 ± 1.7 Å²

SDDESSQKDIK [_SDDESSQK(Dimethyl (K))DIK_]
collision cross section [6]: 372.77 ± 1.2 Å² | collision cross section [7]: 434.93 ± 2.1 Å²

VDIDAPDVSIEGPDAKLK [_VDIDAPDVSIEGPDAK(hydroxyisobutyryl)LK_]
collision cross section (charge state: 2, modification: hydroxyisobutyryl): 475 ± 0.81 Å²

VPTTEKPTVTVNFR [_VPTTEK(Succinyl)PTVTVNFR_]
collision cross section [3]: 427.05 ± 0.52 Å² | collision cross section [4]: 513.15 ± 2.5 Å²

LQEKVESAQSEQK [_LQEK(Dimethyl (K))VESAQSEQK_]
collision cross section [6]: 412.95 ± 1.6 Å² | collision cross section [7]: 455.71 ± 2.1 Å²

IQTKAGEATVK [_IQTK(GlyGly (K))AGEATVK_]
collision cross section (charge state: 2, modification: GlyGly (K)): 373.63 ± 0.56 Å² | collision cross section (charge state: 3, modification: GlyGly (K)): 455.83 Å²

LLFSNTAAQKLR [_LLFSNTAAQK(Butyryl)LR_]
collision cross section [1]: 405.4 ± 0.23 Å² | collision cross section [2]: 483.12 ± 3.2 Å²

HELQANCYEEVKDR [_HELQANCYEEVK(Biotin)DR_]
collision cross section (charge state: 3, modification: Biotin): 512.53 ± 1.6 Å²

ALLQAKASGK [_ALLQAK(Trimethyl (K))ASGK_]
collision cross section (charge state: 2, modification: Trimethyl (K)): 354.6 ± 1.6 Å² | collision cross section (charge state: 3, modification: Trimethyl (K)): 406.65 Å²

GSELQNYFTK [_GSELQNY(Phospho (Y))FTK_]
collision cross section [8]: 373.39 ± 0.68 Å²

SLEEEGAAHSGKR [_SLEEEGAAHSGK(Succinyl)R_]
collision cross section [3]: 416.07 ± 1.8 Å² | collision cross section [4]: 470.94 ± 2.7 Å²

SEGFDTYR [_SEGFDTY(Phospho (Y))R_]
collision cross section [8]: 338.3 ± 0.78 Å²

LEKTIDDLEEK [_LEK(Crotonyl)TIDDLEEK_]
collision cross section [9]: 409.2 ± 1.1 Å²

SSFAYKDQNENR [_SSFAYK(Acetyl (K))DQNENR_]
collision cross section (charge state: 2, modification: Acetyl (K)): 398.41 ± 1.4 Å² | collision cross section (charge state: 3, modification: Acetyl (K)): 457.8 ± 0.27 Å²

ASDTSSETVFGKR [_ASDTSSETVFGK(Crotonyl)R_]
collision cross section [9]: 402.93 ± 0.81 Å² | collision cross section (charge state: 3, modification: Crotonyl): 478.92 ± 1.3 Å²

GETASKLQSEISR [_GETASK(Methyl (K))LQSEISR_]
collision cross section (charge state: 2, modification: Methyl (K)): 400.35 Å² | collision cross section (charge state: 3, modification: Methyl (K)): 463.3 ± 3.8 Å²

GEPGIPAIPGIRGPK [_GEPGIP(Hydroxyproline)AIPGIRGPK_]
collision cross section (charge state: 2, modification: Hydroxyproline): 382.81 ± 0.54 Å² | collision cross section (charge state: 3, modification: Hydroxyproline): 511.46 ± 1.2 Å²

IISSIEQKEENK [_IISSIEQK(Dimethyl (K))EENK_]
collision cross section [6]: 410.65 ± 1.1 Å² | collision cross section [7]: 464.23 ± 1.4 Å²

TLQKQSVVYGGK [_TLQK(Formyl)QSVVYGGK_]
collision cross section (charge state: 2, modification: Formyl): 387.94 ± 1 Å²

YSSNLGNFNYEQRGAFR [_YSSNLGNFNYEQR(Citrullination (R))GAFR_]
collision cross section (charge state: 3, modification: Citrullination (R)): 530.01 Å²

LTEKELAEAASK [_LTEK(Malonyl)ELAEAASK_]
collision cross section (charge state: 2, modification: Malonyl): 390.08 ± 1.1 Å² | collision cross section (charge state: 3, modification: Malonyl): 448.74 ± 2.2 Å²

LEQVEKELLR [_LEQVEK(Crotonyl)ELLR_]
collision cross section [9]: 389.19 ± 0.8 Å²

KFGVLSDNFK [_K(Butyryl)FGVLSDNFK_]
collision cross section [1]: 377.44 ± 0.84 Å²

IVFSGNLFQHQEDSKK [_IVFSGNLFQHQEDSK(Dimethyl (K))K_]
collision cross section [7]: 532.16 ± 0.77 Å²

ALLQAKASGK [_ALLQAK(Succinyl)ASGK_]
collision cross section [3]: 349.13 ± 0.82 Å²

AVPSSPAGSAARGR [_AVPSSPAGSAAR(Methyl (R))GR_]
collision cross section (charge state: 2, modification: Methyl (R)): 387.69 ± 1.4 Å² | collision cross section [5]: 492.48 ± 1.5 Å²
